For assay [1], the target named is T1, human KLK5, active form (human, UniProt Q9Y337 67-293).
T1 construct: mature; also called hKLK5; huKLK5
Nature of the assay: SPR (Biacore), antibody captured on Protein A chip, KLK as analyte, single-cycle kinetics, 25 C.
Experimental: (§1) All screening assays were performed at 25° C. The running buffer used was 20 mM HEPES, 300 mM NaCl, 0.01% Tween-20, pH 7.5. Antibodies (1 μg/mL) were captured on Fc2-4 of a Series S ProteinA Sensor Chip (Cytiva) flowing at 10 μL/min for 30 s. Kinetics measurements were made in single-cycle kinetics mode with a series of 4-5 concentrations with top concentration of 25-100 nM and serial dilution 4-fold. Contact time was typically 300 s and dissociation time ranged from 1800-3600 s. Flow rate of 30 μL/min was typically used. The sensor chip was regenerated with 10 mM glycine, pH 1.5 with a contact time of 30 s flowing at 50 μL/min.

For assay [2], the target named is T2, mouse KLK7 (mouse, UniProt Q91VE3 26-249, limits assumed).
T2 construct: also called mKLK7
The description is as above.
Experimental: as §1

The target of assay [3] is T3, human KLK7, active form (human, UniProt P49862 30-253).
T3 construct: mature; also called hKLK7; huKLK7
T3 sequence (P49862 30-253): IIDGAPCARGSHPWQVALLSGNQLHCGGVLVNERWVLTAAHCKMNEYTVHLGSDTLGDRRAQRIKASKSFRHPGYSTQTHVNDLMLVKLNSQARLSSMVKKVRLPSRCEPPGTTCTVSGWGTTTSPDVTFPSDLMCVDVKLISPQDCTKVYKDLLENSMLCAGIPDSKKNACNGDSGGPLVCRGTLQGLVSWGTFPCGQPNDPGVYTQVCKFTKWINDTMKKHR
The description is as above.
Experimental: as §1

The target of assay [4] is T4, mouse KLK5 (mouse).
T4 construct: also called mKLK5
Described as above.
Experimental: as §1

For assay [5], the target named is T1, human KLK5, active form. The experiment in a line: cell-based or functional assay.
For assay [6], the target named is T2, mouse KLK7. The experiment in a line: cell-based or functional assay.
Assay [7] addresses T3, human KLK7, active form. The experiment in a line: cell-based or functional assay.
The target in assay [8] is T4, mouse KLK5. Nature of the assay: cell-based or functional assay.
The target in assay [9] is T1, human KLK5, active form. The experiment in a line: SPR (Biacore), antibody captured on Protein A chip, active huKLK5 injected at 0.156-40 nM. For orientation: In SPR one partner is held on a chip, and binding of the other changes the refractive index at the surface.
Experimental: (§2) The sensor chip was regenerated with 10 mM glycine, pH 1.5 with a contact time of 30 seconds flowing at 50 μL/min.
The target of assay [10] is T3, human KLK7, active form. Nature of the assay: SPR (Biacore), antibody captured on Protein A chip, active huKLK7 injected at 0.156-40 nM.
Experimental: as §2
The target in the next assay is T5, pro-form of human KLK7 (human, UniProt P49862 23-253).
T5 construct: Pro-form (zymogen); also called proform of huKLK7; proKLK7
T5 sequence (P49862 23-253): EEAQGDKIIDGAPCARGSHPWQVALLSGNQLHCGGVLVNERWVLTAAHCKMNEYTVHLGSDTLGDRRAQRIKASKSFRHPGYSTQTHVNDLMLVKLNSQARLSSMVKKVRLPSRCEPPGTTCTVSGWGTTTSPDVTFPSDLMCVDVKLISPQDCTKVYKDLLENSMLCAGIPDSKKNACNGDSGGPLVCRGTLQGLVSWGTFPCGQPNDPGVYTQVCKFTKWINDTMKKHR
The experiment in a line: SPR (Biacore), antibody captured on Protein A chip, proform huKLK7 injected at 0.156-40 nM.

Another assay deals with T6, pro-form of human KLK5 (human, UniProt Q9Y337 23-293).
T6 construct: Pro-form (zymogen); also called proform of huKLK5; proKLK5
Nature of the assay: SPR (Biacore), antibody captured on Protein A chip, proform huKLK5 injected at 0.156-40 nM.

Where a chain is given by its changes, count along the chain named.

By Kd is commonly meant the concentration at which binding is half-saturated. High values mean a looser complex, low ones a tighter complex.

T2 sequence (Q91VE3 26-249 limits assumed): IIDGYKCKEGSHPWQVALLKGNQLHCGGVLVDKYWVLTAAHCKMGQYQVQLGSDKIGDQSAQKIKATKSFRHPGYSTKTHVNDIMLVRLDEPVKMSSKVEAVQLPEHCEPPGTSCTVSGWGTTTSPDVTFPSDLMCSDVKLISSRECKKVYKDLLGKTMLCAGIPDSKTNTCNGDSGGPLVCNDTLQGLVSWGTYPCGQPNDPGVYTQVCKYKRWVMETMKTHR
Experimental for pro-form of human KLK5: as §2
Experimental for pro-form of human KLK7: as §2

B1: KLK5/KLK7-Dual-Ab2 (antibody, V domains shown)
VH: QLQLQESGPGLVKPSETLSLTCTVSGGSISSDDYYWVWIRQPPGKGLEWIGSIDYFASTYYNPSLKSRVTISVDTSKNQFSLKLSSVTAADTAVYYCARGRPLGYGARHDYYGMDVWGQGTTVTVSS
VL: DIQMTQSPSSLSASVGDRVTITCRASQSISSYLNWYQQKPGKAPKLLIYSASSLQSGVPSRFSGSGSGTDFTLTISSLQPEDFATYYCQQSPYFPPLTFGGGTKVEIK
notes: Captured on a Protein A chip as an antibody; also called KLK5/7-Dual-Ab2
Consider B1, for which the Kd with human KLK5, active form [1] was 0.01 nM; with mouse KLK7 [2], 1.55 nM; in the assay with human KLK7, active form [3], 0.0218 nM; in the assay with mouse KLK5 [4], 2.79 nM. Also, the “IC50(nM), inhibition of protease activity (cleavage of BOC-Val-Pro-Arg-AMC)” value worked out at 0.25 nM with human KLK5, active form [5] and 17.2 nM with mouse KLK5 [8]. Besides, the “IC50(nM), inhibition of protease activity (cleavage of KHLF-AMC)” value in the assay with mouse KLK7 [6] worked out at 5.13 nM; with human KLK7, active form [7] it was 0.25 nM.

B2: KLK5/KLK7-Dual-Ab3 (antibody, V domains shown)
VH: B1 VH with F56Y, N62S, R108K, D110Y
VL: B1 VL
notes: Captured on a Protein A chip as an antibody; also called KLK5/7-Dual-Ab3
As for B2, the Kd in the assay with human KLK5, active form [1] was determined as 0.141 nM; with mouse KLK7 [2], 1.11 nM; in the assay with human KLK7, active form [3], 0.0136 nM; in the assay with mouse KLK5 [4] it was 4.02 nM. Also, the “IC50(nM), inhibition of protease activity (cleavage of BOC-Val-Pro-Arg-AMC)” value in the assay with human KLK5, active form [5] turned out to be 0.25 nM; with mouse KLK5 [8], 24.1 nM. Moreover, the “IC50(nM), inhibition of protease activity (cleavage of KHLF-AMC)” value was 5.28 nM with mouse KLK7 [6] and 0.21 nM with human KLK7, active form [7].

B3: KLK5/KLK7-Dual-Ab4 (antibody, V domains shown)
VH: B1 VH with D32L, F56S, A57G, S58D, D110Y, G113A
VL: B1 VL
notes: Captured on a Protein A chip or coupled to a CM5 chip as an antibody; also called KLK5/7-Dual-Ab4
Regarding B3, the equilibrium dissociation constant (Kd) with human KLK5, active form [1] was 0.0243 nM; in the assay with mouse KLK7 [2], 0.129 nM; with human KLK7, active form [3], 0.002 nM; with mouse KLK5 [4], 3.15 nM; in the assay with human KLK5, active form [9] it was under 0.05 nM; with human KLK7, active form [10], under 0.05 nM. Moreover, the “IC50(nM), inhibition of protease activity (cleavage of BOC-Val-Pro-Arg-AMC)” value with human KLK5, active form [5] was 0.27 nM; in the assay with mouse KLK5 [8], 16.1 nM. For the same molecule, the “IC50(nM), inhibition of protease activity (cleavage of KHLF-AMC)” value with mouse KLK7 [6] was 1.77 nM; with human KLK7, active form [7], 0.16 nM. Besides, the binding result with pro-form of human KLK7 and with pro-form of human KLK5 was “no binding (tested: 40 nM)” in each case.

B4: KLK5/KLK7-Dual-Ab1 (antibody, V domains shown)
VH: B1 VH with D32S, V37G, D54Y, F56S, A57G, D110Y
VL: B1 VL with Y93P
notes: Captured on a Protein A chip as an antibody; also called KLK5/7-Dual-Ab1
On to B4, for which the Kd with human KLK5, active form [1] was 1000 nM; with mouse KLK7 [2], 1 nM; with human KLK7, active form [3], 1.82 nM.

(Values after patent US20260258156A1 (TRIVENI BIO, published 2026).)
